Values of other authors in article PMC4918944.

Biological target: SecY (Bacillus subtilis) (UniProt P16336)
Chain of UniProt P16336 (P16336 whole entry): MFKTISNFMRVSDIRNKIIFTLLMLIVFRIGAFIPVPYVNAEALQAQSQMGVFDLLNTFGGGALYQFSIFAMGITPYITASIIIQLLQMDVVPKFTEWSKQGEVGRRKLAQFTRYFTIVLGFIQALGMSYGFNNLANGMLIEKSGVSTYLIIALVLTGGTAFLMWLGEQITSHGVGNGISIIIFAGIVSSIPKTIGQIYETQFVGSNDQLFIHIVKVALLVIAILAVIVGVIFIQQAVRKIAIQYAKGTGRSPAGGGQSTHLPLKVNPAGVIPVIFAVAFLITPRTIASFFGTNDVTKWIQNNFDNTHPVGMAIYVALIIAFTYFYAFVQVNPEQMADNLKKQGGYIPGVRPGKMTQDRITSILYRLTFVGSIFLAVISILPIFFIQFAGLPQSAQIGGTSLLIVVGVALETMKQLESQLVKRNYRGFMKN

- Kd: 4 nM
Substance: SecA (from UniProt P28366)
